Where a chain is given by its changes, count along the chain named. Numbers in names are those of the source. Values belong to the binder of their own block, whether it stands above or below them.
Assays:
[1] = molecular target: T1, Human C3b (wild type), immobilised on a CM5 sensor chip (human, UniProt P01024 23-667; P01024 749-1663); test: SPR steady-state affinity, FH1-4 20-0.156 µM over thioester-coupled WT C3b (899 RU)
T1 construct: also called WT C3b; WT C3

[2] = molecular target: T2, L1109V mutant C3b, immobilised on a CM5 sensor chip (human, UniProt P01024 23-667; P01024 749-1663); test: SPR steady-state affinity, FH1-4 20-0.156 µM over thioester-coupled L1109V C3b (898 RU)
T2 construct: C3 purified from the serum of a homozygous aHUS patient and converted to C3b on the chip (898 RU, thioester coupled); also called L1109V C3b; variant C3b

[3] = molecular target: T1, Human C3b (wild type), immobilised on a …; test: SPR steady-state affinity fit (BIAevaluation S200), WT FH1-4 over C3b immobilised on a CM5 chip
Source text: Data was collected at 40 Hz and there was a 120s stabilisation period between each sample being injected.

[4] = molecular target: T1, Human C3b (wild type), immobilised on a …; test: SPR steady-state affinity fit (BIAevaluation S200), WT FH1-4 over thiol-coupled WT C3b (899 RU) on a CM5 chip, PBST [Continued]
[5] = molecular target: T1, Human C3b (wild type), immobilised on a …; test: SPR steady-state affinity, FH19-20 20-0.156 µM over thioester-coupled WT C3b (899 RU); WT C3b on the chip, not the L1109V mutant
[6] = molecular target: T2, L1109V mutant C3b, immobilised on a CM5 …; test: SPR steady-state affinity, FH19-20 20-0.156 µM over thioester-coupled L1109V C3b (898 RU); fitted KD from the same SPR run on L1109V C3b that the text calls a lack of binding
[7] = molecular target: C3b:FH1-4 complex (chip-bound C3b with co-injected WT FH1-4)
[8] = molecular target: T3, C3b:FH1-4 complex (chip-bound C3b with co-injected WT FH1-4) (human, UniProt P01024 23-667; P01024 749-1663; P08603 19-263); test: SPR TMC building, 62.5 nM FI with 125 nM WT FH1-4 over amine-coupled C3b
T3 construct: Composite target for the FI variants in the trimolecular complex (TMC) building assay, made of m1 and m3; FI and FH1-4 were injected together over C3b; also called FH/C3b; FH-1-4/C3b

[9] = molecular target: T2, L1109V mutant C3b, immobilised on a CM5 …; test: SPR affinity estimate, FL-FH over thioester-coupled mutant and WT C3b
Source text: (§1) Dissociation constants (KD) are given under the graphs showing each concentration vs RU curve labelled with the appropriate variant.

[10] = molecular target: T1, Human C3b (wild type), immobilised on a …; test: SPR affinity estimate (not steady state), FL-FH 250-7.8 nM over thioester-coupled WT C3b
Source text: as §1

[11] = molecular target: T2, L1109V mutant C3b, immobilised on a CM5 …; test: SPR affinity fit (BIAevaluation), WT full length FH over thiol-coupled L1109V C3b (898 RU) on a CM5 chip, PBST; printed under both panels [Continued]
Source text: as §1

T1 sequence (P01024 23-667 limits assumed, chain 1 of 2): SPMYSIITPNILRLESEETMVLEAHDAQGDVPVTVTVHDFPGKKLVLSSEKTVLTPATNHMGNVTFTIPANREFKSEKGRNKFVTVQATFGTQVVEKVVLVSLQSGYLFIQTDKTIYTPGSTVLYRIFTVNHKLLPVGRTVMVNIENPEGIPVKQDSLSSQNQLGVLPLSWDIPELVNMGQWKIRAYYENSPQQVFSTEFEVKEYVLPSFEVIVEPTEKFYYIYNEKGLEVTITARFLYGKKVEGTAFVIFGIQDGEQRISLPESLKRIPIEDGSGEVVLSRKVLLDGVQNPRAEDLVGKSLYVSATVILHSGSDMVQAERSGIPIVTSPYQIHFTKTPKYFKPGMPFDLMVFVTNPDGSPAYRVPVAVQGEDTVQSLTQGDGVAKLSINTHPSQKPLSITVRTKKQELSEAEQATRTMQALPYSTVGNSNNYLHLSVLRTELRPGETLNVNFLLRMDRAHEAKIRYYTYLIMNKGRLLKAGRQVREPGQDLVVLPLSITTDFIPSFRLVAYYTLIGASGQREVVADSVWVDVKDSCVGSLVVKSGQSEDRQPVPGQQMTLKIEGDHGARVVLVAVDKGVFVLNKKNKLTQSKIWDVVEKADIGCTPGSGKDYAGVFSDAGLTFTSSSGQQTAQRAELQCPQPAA
T1 sequence (P01024 749-1663 limits assumed, chain 2 of 2): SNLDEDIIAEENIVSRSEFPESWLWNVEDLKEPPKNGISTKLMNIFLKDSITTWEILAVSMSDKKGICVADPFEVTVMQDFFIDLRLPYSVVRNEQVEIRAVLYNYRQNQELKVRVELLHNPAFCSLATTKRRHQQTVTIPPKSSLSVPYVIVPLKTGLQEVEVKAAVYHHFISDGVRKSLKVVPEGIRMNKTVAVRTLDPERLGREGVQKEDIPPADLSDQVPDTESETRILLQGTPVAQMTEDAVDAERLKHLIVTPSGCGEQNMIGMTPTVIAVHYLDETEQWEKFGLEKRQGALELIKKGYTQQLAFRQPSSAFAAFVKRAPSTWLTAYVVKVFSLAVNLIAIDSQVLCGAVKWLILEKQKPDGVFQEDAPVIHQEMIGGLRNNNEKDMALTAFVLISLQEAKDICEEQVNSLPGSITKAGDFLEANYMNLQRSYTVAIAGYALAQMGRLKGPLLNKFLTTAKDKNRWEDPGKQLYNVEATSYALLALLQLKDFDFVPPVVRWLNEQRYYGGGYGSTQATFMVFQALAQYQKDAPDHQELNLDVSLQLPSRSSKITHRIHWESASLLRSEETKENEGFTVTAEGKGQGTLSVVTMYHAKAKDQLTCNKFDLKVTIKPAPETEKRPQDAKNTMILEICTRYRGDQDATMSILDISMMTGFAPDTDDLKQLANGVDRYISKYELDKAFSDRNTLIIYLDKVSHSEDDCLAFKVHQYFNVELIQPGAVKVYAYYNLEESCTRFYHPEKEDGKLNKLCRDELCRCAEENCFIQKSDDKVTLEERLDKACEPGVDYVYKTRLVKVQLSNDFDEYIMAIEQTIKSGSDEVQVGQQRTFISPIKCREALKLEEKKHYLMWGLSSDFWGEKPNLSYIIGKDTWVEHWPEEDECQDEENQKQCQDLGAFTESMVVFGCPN
T2 sequence (P01024 23-667 limits assumed, chain 1 of 2): as the sequence (P01024 23-667 limits assumed, chain 1 of 2) above
T2 sequence (P01024 749-1663 L1109V limits assumed, chain 2 of 2): as the sequence (P01024 749-1663 limits assumed, chain 2 of 2) above, with L361V counted along it
T3 sequence (P01024 23-667 limits assumed, chain 1 of 2): as the sequence (P01024 23-667 limits assumed, chain 1 of 2) above
T3 sequence (P01024 749-1663 limits assumed, chain 2 of 2): as the sequence (P01024 749-1663 limits assumed, chain 2 of 2) above

- Kd [1]: 8.1 µM
- Kd [2]: 9.2 µM
- Kd [3]: 10.1 µM
- Kd [4]: 8.09 µM
B1: Recombinant Human Complement Factor H CCPs 1-4 (6x His-tagged), wild type (other)
chain: EKREAEAAGEQKLISEEDLEDCNELPPRRNTEILTGSWSDQTYPEGTQAIYKCRPGYRSLGNVIMVCRKGEWVALNPLRKCQKRPCGHPGDTPFGTFTLTGGNVFEYGVKAVYTCNEGYQLLGEINYRECDTDGWTNDIPICEVVKCLPVTAPENGKIVSSAMEPDREYHFGQAVRFVCNSGYKIEGDEEMHCSDDGFWSKEKPKCVEISCKSPDVINGSPISQKIIYKENERFQYKCNMGYEYSERGDAVCTESGWRPLPSCEHHHHHH
notes: Produced in-house; also called FH1-4; WT FH1-4

- Kd [5]: 9.92 µM
- Kd [6]: ~358 µM
B2: Complement Factor H CCP domains 19-20 (WT FH CCP19-20) (other, human, UniProt P08603 1107-1231, looked up)
chain: GKCGPPPPIDNGDITSFPLSVYAPASSVEYQCQNLYQLEGNKRITCRNGQWSEPPKCLHPCVISREIMENYNIALRWTAKQKLYSRTGESVEFVCKRGYRLSSRSHTLRTTCWDGKLEYPTCAKR
notes: domain: CCP19-20; also called FH19-20

B3: Inactive (S525A) Complement Factor I (protein)
chain: KVTYTSQEDLVEKKCLAKKYTHLSCDKVFCQPWQRCIEGTCVCKLPYQCPKNGTAVCATNRRSFPTYCQQKSLECLHPGTKFLNNGTCTAEGKFSVSLKHGNTDSEGIVEVKLVDQDKTMFICKSSWSMREANVACLDLGFQQGADTQRRFKLSDLSINSTECLHVHCRGLETSLAECTFTKRRTMGYQDFADVVCYTQKADSPMDDFFQCVNGKYISQMKACDGINDCGDQSDELCCKACQGKGFHCKSGVCIPSQYQCNGEVDCITGEDEVGCAGFASVTQEETEILTADMDAERRRIKSLLPKLSCGVKNRMHIRRKRIVGGKRAQLGDLPWQVAIKDASGITCGGIYIGGCWILTAAHCLRASKTHRYQIWTTVVDWIHPDLKRIVIEYVDRIIFHENYNAGTYQNDIALIEMKKDGNKKDCELPRSIPACVPWSPYLFQPNDTCIVSGWGREKDNERVFSLQWGEVKLISNCSKFYGNRFYEKEMECAGTYDGSIDACKGDAGGPLVCMDANNVTYVWGVVSWGENCGKPEFPGVYTKVANYFDWISYHVGRPFISQYNV
- cleavage of chip-bound C3b (SPR, convertase rebuilt before and after) [7]: Inactive (S525A) FI therefore demonstrated binding of the components of the AP regulatory TMC without cleaving the chip surface

B4: Complement Factor I with only an H380R mutation (protein)
chain: B3 chain with H362R, A507S
- cleavage of chip-bound C3b (SPR) [7]: H380R FI appears to bind to WT FH1-4/C3b without cleaving the C3b coupled chip surface

- increase in response (RU) [8]: ~2 RU
B5: Y459S inactive (S525A) Complement Factor I (enzyme)
chain: B3 chain with Y441S
notes: also called Y459S FI

B6: Complement Factor I, wild type (active) (protein)
chain 1: KVTYTSQEDLVEKKCLAKKYTHLSCDKVFCQPWQRCIEGTCVCKLPYQCPKNGTAVCATNRRSFPTYCQQKSLECLHPGTKFLNNGTCTAEGKFSVSLKHGNTDSEGIVEVKLVDQDKTMFICKSSWSMREANVACLDLGFQQGADTQRRFKLSDLSINSTECLHVHCRGLETSLAECTFTKRRTMGYQDFADVVCYTQKADSPMDDFFQCVNGKYISQMKACDGINDCGDQSDELCCKACQGKGFHCKSGVCIPSQYQCNGEVDCITGEDEVGCAGFASVAQEETEILTADMDAERRRIKSLLPKLSCGVKNRMHI
chain 2: IVGGKRAQLGDLPWQVAIKDASGITCGGIYIGGCWILTAAHCLRASKTHRYQIWTTVVDWIHPDLKRIVIEYVDRIIFHENYNAGTYQNDIALIEMKKDGNKKDCELPRSIPACVPWSPYLFQPNDTCIVSGWGREKDNERVFSLQWGEVKLISNCSKFYGNRFYEKEMECAGTYDGSIDACKGDSGGPLVCMDANNVTYVWGVVSWGENCGKPEFPGVYTKVANYFDWISYHVGRPFISQYNV
- cleavage of chip-bound C3b to iC3b (SPR, 25° C.) [7]: the chip was shown to be degraded almost instantaneously after formation of a small amount of TMC (˜3 RU) and conversion of C3b to iC3b

- fold change of KD, mutant C3b against WT C3b [9]: 3.6 fold
- Kd [10]: 280 nM
- Kd [11]: 1010 nM
B7: Full Length Human Complement Factor H (FH) (other)
chain: EDCNELPPRRNTEILTGSWSDQTYPEGTQAIYKCRPGYRSLGNVIMVCRKGEWVALNPLRKCQKRPCGHPGDTPFGTFTLTGGNVFEYGVKAVYTCNEGYQLLGEINYRECDTDGWTNDIPICEVVKCLPVTAPENGKIVSSAMEPDREYHFGQAVRFVCNSGYKIEGDEEMHCSDDGFWSKEKPKCVEISCKSPDVINGSPISQKIIYKENERFQYKCNMGYEYSERGDAVCTESGWRPLPSCEEKSCDNPYIPNGDYSPLRIKHRTGDEITYQCRNGFYPATRGNTAKCTSTGWIPAPRCTLKPCDYPDIKHGGLYHENMRRPYFPVAVGKYYSYYCDEHFETPSGSYWDHIHCTQDGWSPAVPCLRKCYFPYLENGYNQNYGRKFVQGKSIDVACHPGYALPKAQTTVTCMENGWSPTPRCIRVKTCSKSSIDIENGFISESQYTYALKEKAKYQCKLGYVTADGETSGSITCGKDGWSAQPTCIKSCDIPVFMNARTKNDFTWFKLNDTLDYECHDGYESNTGSTTGSIVCGYNGWSDLPICYERECELPKIDVHLVPDRKKDQYKVGEVLKFSCKPGFTIVGPNSVQCYHFGLSPDLPICKEQVQSCGPPPELLNGNVKEKTKEEYGHSEVVEYYCNPRFLMKGPNKIQCVDGEWTTLPVCIVEESTCGDIPELEHGWAQLSSPPYYYGDSVEFNCSESFTMIGHRSITCIHGVWTQLPQCVAIDKLKKCKSSNLIILEEHLKNKKEFDHNSNIRYRCRGKEGWIHTVCINGRWDPEVNCSMAQIQLCPPPPQIPNSHNMTTTLNYRDGEKVSVLCQENYLIQEGEEITCKDGRWQSIPLCVEKIPCSQPPQIEHGTINSSRSSQESYAHGTKLSYTCEGGFRISEENETTCYMGKWSSPPQCEGLPCKSPPEISHGVVAHMSDSYQYGEEVTYKCFEGFGIDGPAIAKCLGEKWSHPPSCIKTDCLSLPSFENAIPMGEKKDVYKAGEQVTYTCATYYKMDGASNVTCINSRWTGRPTCRDTSCVNPPTVQNAYIVSRQMSKYPSGERVRYQCRSPYEMFGDEEVMCLNGNWTEPPQCKDSTGKCGPPPPIDNGDITSFPLSVYAPASSVEYQCQNLYQLEGNKRITCRNGQWSEPPKCLHPCVISREIMENYNIALRWTAKQKLYSRTGESVEFVCKRGYRLSSRSHTLRTTCWDGKLEYPTCAKR
notes: Bought (CompTech, A137); also called FL-FH; FLFH
